Assay results published in patent US20250101071A1 (PAUL EHRLICH INSTITUT BUNDESINSTITUT F R IMPFSTOFFE UND …, published 2025).

B1: recombinant human CD32a extracellular domain with C-terminal His-tag, biotinylated (H167R) (receptor)
chain: QAAAPPKAVLKLEPPWINVLQEDSVTLTCQGARSPESDSIQWFHNGNLIPTHTQPSYRFKANNNDSGEYTCQTGQTSLSDPVHLTVLSEWLVLQTPHLEFQEGETIMLRCHSWKDKPLVKVTFFQNGKSQKFSRLDPTFSIPQANHSHSGDYHCTGNIGYTLFSSKPVTITVQVPSMGSSSPMG
notes: also called CD32a-His; recombinant CD32a protein; not shown: C-terminal His-tag
B2: DARPin 53.A8 (designed binder)
chain: DLGKKLLEATRAGQDDEVRILMANGANVNATDEEGLTPLHLAALDGHLEIVEVLLKYGADVNADDMHGPTPLHLAAYAGHLEIVEVLLKYGADVNAYDCGGHTPLHLAARLGHLEIVEVLLKYGADVNAQDKFGKTPFDLAIDNGNEDIAEVLQKAA

Key:
Test in all cases: SPR, Biacore T200, biotinylated CD32a on neutravidin chip, DARPin as analyte
[1] = target: DARPin 52.H6
[2] = target: DARPin 53.2F11[TEV]
[3] = target: DARPin 53.2.F11
[4] = target: DARPin 53.D8
[5] = target: DARPin 53.C8
[6] = target: DARPin 53.H3
[7] = target: B1

Measured: Kd

B1
not listed: [7]
< 2 nM: all other assays above

B2
< 2 nM: [7]
